The source of these data is publication PMC6565748, “Environmental pH and peptide signaling control virulence of Streptococcus pyogenes via a quorum-sensing pathway” (Nature Communications, 2019).

Assay [1] has as its system SpeBM. As to the kind of experiment: SpeB protease activity assay with SpeBZ-C192S zymogen as substrate. To be noted: SDS-PAGE; 0.25 mg/ml C192S zymogen, 0.1 µg mature SpeB, different buffer pH. Type of assay: biochemical, Streptococcus pyogenes. The protocol:
Purified C192S was added to a final concentration of 0.25 mg/ml in reaction mixture containing 0.1 µg of mature SpeB in different buffer pH conditions. Aliquots were collected at indicated time points and reaction was stopped by adding SDS gel-loading buffer. Proteolytic processing of C192S zymogen into mature form was visualized by SDS-PAGE.

Assay [2] has as its system speB expression in SIP* mutant strain. As to the kind of experiment: Synthetic peptide addition assay, speB transcript level by qRT-PCR in SIP* mutant strain. Type of assay: cell-based, Streptococcus pyogenes. The protocol:
Synthetic peptides of high purity (>90% purity) obtained from Peptide 2.0 (Chantilly, VA) were suspended in 100% DMSO to prepare a 10 mM stock solution. Stock solutions were aliquoted and stored at −20 °C until use. Working stocks were prepared by diluting the stock solution in 25% DMSO.
GAS strains were grown to the indicated A600 and incubated with two volumes of RNAprotect (Qiagen) for 10 min at room temperature. RNA isolation and purification were performed with an RNeasy kit (Qiagen). After quality control analysis, cDNA was synthesized from the purified RNA using Superscript III (Invitrogen) and Taqman qRT-PCR was performed with an ABI 7500 Fast System (Applied Biosystems). Comparison of transcript levels was performed by the ∆CT method of analysis using tufA as the endogenous control gene[5],[78]. The primers and probes used for qRT-PCR are listed in Supplementary Table 2.
For orientation: In qPCR the cycle at which signal appears reflects the starting amount.

Assay [3] addresses T1, RopB (Streptococcus pyogenes, UniProt Q9FB04).
T1 sequence (Q9FB04 1-280): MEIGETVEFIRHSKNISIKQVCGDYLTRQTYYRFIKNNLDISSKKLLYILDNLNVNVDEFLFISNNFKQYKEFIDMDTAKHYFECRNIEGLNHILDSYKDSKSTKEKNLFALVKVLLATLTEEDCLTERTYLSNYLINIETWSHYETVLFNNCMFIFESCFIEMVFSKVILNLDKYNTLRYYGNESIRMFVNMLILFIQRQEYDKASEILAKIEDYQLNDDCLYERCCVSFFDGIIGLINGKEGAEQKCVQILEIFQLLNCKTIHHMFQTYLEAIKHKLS
As to the kind of experiment: Fluorescence polarization (FP) assay of RopB binding to fluoresceinated SIP peptides. To be noted: Fig. 3c; compared to SIP (SIP-WT). As for the experimental part: The coding regions of the full-length and C-terminal domain (RopB–CTD) (amino acids 56–280) of ropB gene of strain MGAS10870 were cloned into plasmids pET-28a and pET-21b, respectively. Protein was overexpressed in E. coli strain BL21 (DE3). Protein overexpression and purification for both full-length RopB and RopB–CTD were carried out as described previously[37],[68]. The proteins were purified to >95% homogeneity and concentrated to a final concentration of ~ 20 mg/ml.
(§1) Fluorescence polarization-based RopB-ligand binding experiments were performed with a Biotek microplate reader (Biotek) using the […] fluorescence of fluorescein labeled DNA or synthetic peptides. The polarization (P) of the labeled DNA or synthetic peptides increases as a function of protein binding, and equilibrium dissociation constants were determined from plots of millipolarization (P × 10^–3) against protein concentration. For RopB–DNA-binding studies, 1 nM 5′-fluoresceinated oligoduplex in binding buffer (20 mM Tris–HCl pH 8.5, 200 mM NaCl, 1 mM TCEP and 25% DMSO) was titrated against increasing concentrations of purified RopB and the resulting change in polarization measured. Samples were excited at 490 nm and emission measured at 530 nm. […]
(In fluorescence polarisation assays a small probe gives low polarisation when free and higher when bound to something large.)

The subject of assay [4] is RopB–speB promoter interactions. Nature of the assay: FP assay of RopB–DNA binding in presence of SIP peptides. Further details: species or system Streptococcus pyogenes. To be noted: fluoresceinated oligoduplexes with RopB binding sites from speB promoter, RopB complexed with SIP peptide (Supplementary Fig. 8c, d). As for the experimental part: as §1, with “nm. The RopB-peptide-binding studies were performed in a peptide-binding buffer composed of 20 mM potassium phosphate pH 6.0, 75 mM Nacl, 2% DMSO, 1 mM EDTA and 0.0005% Tween 20. All data were plotted using KaleidaGraph and the resulting plots were fitted with the equation P = {(Pbound − Pfree)[protein]/(KD + [protein])} + Pfree, where P is the polarization measured at a given protein concentration, Pfree is the initial polarization of the free ligand, Pbound is the maximum polarization of specifically bound ligand and [protein] is the protein concentration. Nonlinear least squares analysis was used to determine Pbound, and Kd.” for “nm.”

Assay [5] deals with regulator of proteinase B (RopB), full-length, wild type. As to the kind of experiment: FP assay. Particulars: for Kd: parent: 13 ± 0.3 nM.
Assay [6] addresses synthetic SIP variant SIP-L6A (Streptococcus pyogenes). As to the kind of experiment: fluorescence polarisation; fluorescein labeled synthetic peptide titrated with purified RopB protein; 20 mM potassium phosphate pH 6.0, 75 mM NaCl, 2% DMSO, 1 mM EDTA, 0.0005% Tween 20.
Assay [7] deals with synthetic SIP peptide containing fluorescein modification at its amino-terminus (FITC-SIP). As to the kind of experiment: FP assay. Particulars: for Kd: parent: 6.3 ± 0.5 nM.
The target of assay [8] is T2, regulator of proteinase B (RopB), full-length, wild type (Streptococcus pyogenes (strain …)).
T2 chain: T1 sequence (Q9FB04 1-280)
As to the kind of experiment: FP; pH 6.0.

In assay [9] the target is T2, regulator of proteinase B (RopB), …. Nature of the assay: FP; pH 7.5.
The target is the same in assay [10]. Nature of the assay: FP; pH 7.0.
Assay [11] has the same target. Nature of the assay: FP; pH 9.0.
Assay [12] shares this target. Nature of the assay: FP; pH 8.0.
The target is the same in assay [13]. As to the kind of experiment: FP; pH 5.5.
For assay [14] the target is unchanged. As to the kind of experiment: FP; pH 6.5.
Assay [15] has the same target. As to the kind of experiment: FP; pH 8.5.

Where a SMILES comes first, the peptide text is derived from it. Where no end group is shown, it is not given here. The star is where a group is joined. FITC = O=C1OC2(c3ccc(O)cc3Oc3cc(O)ccc32)c2ccc(NC(=S)*)cc21

Regarding `CC(C)C[C@H](NC(=O)[C@H]1O[C@@H]1C(=O)O)C(=O)NCCCCN=C(N)N` [E64], the “Proteolytic cleavage of SpeBZ-C192S by SpeBM” value in assay [1] is on record as “inhibited”.

As to `CSCC[C@H](N)C(=O)N[C@@H](Cc1c[nH]c2ccccc12)C(=O)N[C@@H](CC(C)C)C(=O)N[C@@H](CC(C)C)C(=O)N[C@@H](CC(C)C)C(=O)N[C@@H](C)C(=O)N[C@@H](Cc1ccccc1)C(=O)N[C@@H](CC(C)C)C(=O)O` [SIP-L6A] (H-MWLLLAFL-OH; N-terminus and C-terminus assumed), the “Ability to activate RopB-dependent speB expression” value in [2] (SIP addition assay, SIP* mutant strain, reference DMSO-supplemented strain (Fig. 3d)) was “partial activity”. For the same molecule, the “Fold change reduction in Kd” value in assay [3] was ~ 2.7. For the same molecule, in assay [4], the “Effect on RopB–promoter (operator sequence) interactions” value is “WT-like binding to operator sequences”.

As for `CSCC[C@H](N)C(=O)N[C@@H](Cc1c[nH]c2ccccc12)C(=O)N[C@@H](CC(C)C)C(=O)N[C@@H](CC(C)C)C(=O)N[C@@H](CC(C)C)C(=O)N[C@@H](CC(C)C)C(=O)N[C@@H](Cc1ccccc1)C(=O)N[C@@H](CC(C)C)C(=O)O` [SIP] (H-MWLLLLFL-OH; N-terminus and C-terminus assumed), in [2] (SIP* mutant strain at A600 ~1.7, THY broth adjusted to different pH, synthetic SIP, 1 h, relative to unsupplemented strain), the “SIP-dependent speB expression (speB transcript level)” value is “maximal within a very narrow pH range (pH 5.5–6.0)”. In addition, the “Ability to induce speB expression” value in assay [2] (SIP* mutant strain, THY pH 8, SIP added even at 100-fold excess, 1 h) is listed as “lost the ability to induce speB expression”.

With “SpeB-inducing peptide (SIP), synthetic, unmodified F7A”, in assay [5], the ratio to parent turned out to be 11 and the Kd (in general, the constant that tells how readily two partners part at equilibrium) is 0.142 µM.

For the molecule “SpeB-inducing peptide (SIP), synthetic, unmodified L3A”, in [5], the ratio to parent was 41 and the Kd is 0.534 µM.

With “SpeB-inducing peptide (SIP), synthetic, unmodified L4A”, in assay [5], the ratio to parent stood at 27 and the Kd was 0.358 µM.

On to “SpeB-inducing peptide (SIP), synthetic, unmodified L5A”, for which, in assay [5], the ratio to parent was 48 and the Kd was 0.625 µM.

“SpeB-inducing peptide (SIP), synthetic, unmodified L6A”: the Kd in [5] was 0.036 µM.

For “SpeB-inducing peptide (SIP), synthetic, unmodified L8A”, in [5], the ratio to parent is 8 and the dissociation constant (Kd) was 0.106 µM.

“SpeB-inducing peptide (SIP), synthetic, unmodified M1A”: in assay [5], the ratio to parent was 20 and the Kd was 0.259 µM.

On to “SpeB-inducing peptide (SIP), synthetic, unmodified W2A”, for which, in assay [5], the ratio to parent stood at 44 and the equilibrium dissociation constant (Kd) was determined as 0.57 µM.

Turning to “regulator of proteinase B (RopB), full-length, wild type (receptor)”, in assay [6], the fold reduction in binding affinity compared to SIP is 2.7 fold.

Take “regulator of proteinase B (RopB), full-length, wild type F155A”: in [7], the ratio to parent was determined as 5 and the dissociation constant Kd came out at 0.033 µM.

On to “regulator of proteinase B (RopB), full-length, wild type M267A”, for which, in assay [7], the ratio to parent turned out to be 44 and the dissociation constant (Kd) turned out to be 0.283 µM.

In the case of “regulator of proteinase B (RopB), full-length, wild type N152A”, in assay [7], the ratio to parent was found to be 28 and the Kd came out at 0.243 µM.

Take “regulator of proteinase B (RopB), full-length, wild type N192A”: in assay [7], the ratio to parent stood at 72 and the Kd is 0.462 µM.

Regarding “regulator of proteinase B (RopB), full-length, wild type R188A”, in assay [7], the ratio to parent was found to be 67 and the Kd turned out to be 0.429 µM.

B1: synthetic SIP peptide containing fluorescein modification at its amino-terminus (FITC-SIP) (peptide)
chain: {FITC}-MWLLLLFL
In the case of B1, the Kd came out at 0.0018 µM in assay [8]; 0.0421 µM in [9]; 0.0118 µM in [10]; 0.32 µM in assay [11]; 0.0786 µM in assay [12]; 0.0054 µM in assay [13]. The equilibrium dissociation constant (Kd) worked out at 0.0029 µM in [14] and 0.222 µM in assay [15].
